± gives the uncertainty stated by the source.
test: amyloid nucleation score (Sup35N fusion, yeast selection) (log enrichment); library NNK2; higher = more nucleation; inactive = no reads after selection
How it was run: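 Sup35N fusions to peptides of 20 random codons were expressed in psi-negative yeast, induced 24 hours with 100 μM copper sulfate, and grown 7 days at 30°C on medium lacking adenine and uracil. Input and output plasmid inserts were sequenced by Illumina. The nucleation score is the DiMSum log enrichment of output over input reads, centred on the mode score of non-aggregating sequences. Sequences with under 100 input reads were excluded.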

Substance | amyloid nucleation score
ISGSRWRLGAIVGTVVEAFG | -0.049 ± 0.76
PNDAN | 0.043 ± 0.28
EFILHVTQIAAIMDLRLVHM | 4.01 ± 0.11
AYRLGFNVMLTDAVVARDIL | 0.512 ± 0.66
FLVENCC | -0.39 ± 0.64
MQTCYSDQMDFVYEAYYCTW | 1.7 ± 0.1
GGTIYTLL | -1.01 ± 0.36
CLNKIETPSTVKFRECHCCD | 4.517 ± 0.041
NKLFPAWLPMCVFWFYGFLA | -0.138 ± 0.53
WQENFSHCNLSMLCEVNLSK | -0.44 ± 0.49
DVRVISNDNAWDDLRLYFDK | 0.36 ± 0.3
LVEGCILSRHQESVNLRFCL | 1.22 ± 0.29
CVMFTLSCVNFDCDCSCRWK | 6.31 ± 0.084
GRIVVFV | 0.538 ± 0.39
IPSRAVVPFFLDLRPHADVS | 0.25 ± 0.46
RMTSHCMNSLIWQKNHGMRV | -0.348 ± 0.65
KLNLGGCLMSRVYC | 0.345 ± 0.16
RVMRVISRPEELAWVA | 0.602 ± 0.29
FIKVFCSLRVDNQVRYRKRL | 2.75 ± 0.1
VRSPCVDVYFPYSLVLDMCL | 0.614 ± 0.62
SAADQPKWRSTTSCVPSDVS | 3.74 ± 0.068
RCRFPVVIKQRDLVKEVMV | -0.222 ± 0.46

Substance | amyloid nucleation score
HGASSVAFNLLLSCVSWVGC | 7.468 ± 0.04
TSRPMALQGYSGNSDDVTYV | 0.445 ± 0.65
GQDITDTFTLNCSRGFTCIR | 0.091 ± 0.34
YDGAIDITTGLFLCFWVCTV | 3.96 ± 0.047
VLRGPS | 0.302 ± 0.56
LGWINKWKRLSNIPIAKWHC | inactive
AEGSDGCLKLNGAITIGHMI | inactive
KAWFLESSKYSYRSWFR | -0.641 ± 0.38
HYCVIEKRSHIG | -0.739 ± 0.64
SKTLAGIWSDGVHAEFDIKG | -0.573 ± 0.79
YWVLQNYHLYCLYKSKSRNW | -0.403 ± 0.4
TFLWLLLY | 6.754 ± 0.034
HLCKLSYI | 1.2 ± 0.33
TMDNISSNSFDACSICSYWY | 9.385 ± 0.081
IFVGVNCIQKISKRYGWYLC | 0.214 ± 0.77
EELSIQRALLVCPKKEGFLE | 3.69 ± 0.082
APGWKLMNTSPNRMSTLNLQ | -0.633 ± 1.1
FFTSSHNFCYLMGYNMIWFK | inactive
LFRVMILC | -0.239 ± 0.42
LICSHTLIRVYVKFF | 1.16 ± 0.3
LSSLYFSLFNYYLFNRFIFN | inactive
DVQWTGPRPFPFV | 0.679 ± 0.4

Substance | amyloid nucleation score
YSTFSGH | 0.806 ± 0.27
PGEECGGLSITIEWGTSSS | 0.211 ± 0.5
FLGCYGLNCVSWKGMMSTPL | 4.31 ± 0.072
YSRVQSRPMCKLRKALHWRV | 1.31 ± 0.25
TVVKDHEYKEWSDWSF | inactive
LIGAATSKNVIRCNGWDGDQ | 0.848 ± 0.57
VFLTGCIPR | 0.052 ± 0.37
DFSMIGSEKVAPGKNPDASL | 0.22 ± 0.57
ILYGGSPSLYVYAYTKN | 4.35 ± 0.11
ACETCPAAEIYLICGTWKSR | 9.36 ± 0.034
TTKPSAILWGSTSKRPRLPR | 1.23 ± 0.34
WKVVSEIWIMGTSSTFVTDH | 1.11 ± 0.12
IACYMMGLRLL | -0.414 ± 0.41
FIITNWQVSFRL | 4.383 ± 0.042
LYSVGFRLTS | inactive
KARSRLLVFYKYTKGIWAQS | -0.147 ± 1.1
GNTLGRFMVLHT | -0.199 ± 0.8
LPGSRHNSRMSLRTQVVKVL | inactive
IAIRFIDDYCGFRGV | 0.288 ± 0.8
GWQGISAVSRGTGCWLEGTG | 0.649 ± 0.34
FSMRFRKVFICKMDIQQAYV | 0.13 ± 1.1
LGNTRSIWGE | 0.578 ± 0.27

Substance | amyloid nucleation score
CRLPQQKPHEMPTLDDFARS | 0.553 ± 0.44
YFGTLSLLKHEVA | -0.289 ± 0.3
LGFWL | -1.31 ± 0.41
FWSVEMMRHTSSFIFAEWNK | -0.033 ± 0.2
QDRGHSVL | inactive
CACDNHIVNRSESHCYGSLR | -0.293 ± 0.39
LVYLELTELQLCDAFAKVKN | 0.133 ± 0.25
MFILGVRPMISKSHNVPTQR | -0.171 ± 0.42
VKLVCSDFKMACTSSSMSVD | 0.861 ± 0.24
WSVVLWDVEGYWASASSQLW | 0.907 ± 0.35
VDFVIGLLKPTVVKNHGCWS | -0.301 ± 0.65
WIFFHGGRMRTCYRDAVGEV | -0.484 ± 0.36
IHCRCVADCSRS | -0.097 ± 0.76
FALHGEFFYHKKRSQGFRAH | -1.36 ± 0.61
CLDFYFIVGNFNQHLVRCVL | 1.79 ± 0.16
HTRLHKGIQRVEIGSMNGK | -0.637 ± 1.1
ADRSVGGFNCVSFLYAVN | 4.02 ± 0.076
VYEAWRTMQTGMYGVNRVWS | 0.911 ± 0.15
GHMLLFTFFR | 5.965 ± 0.035
